This assay deals with T1, HLA-A*02:01 (human).
T1 construct: Peptide-receptive HLA-A*02:01 monomer obtained by UV cleavage of a UV-sensitive ligand; captured on streptavidin plates; also called peptide-receptive MHC molecules; MHC class I
In words: UV-ligand exchange, anti-b2m ELISA; grade of peptide exchange yield (>10% = +; >20% = ++; >50 = +++; >75% = ++++). An excerpt: Candidate peptides for T cell based therapies according to the present invention were further tested for their MHC binding capacity (affinity). The individual peptide-MHC complexes were produced by UV-ligand exchange, where a UV-sensitive peptide is cleaved upon UV-irradiation, and exchanged with the peptide of interest as analyzed. Only peptide candidates that can effectively bind and stabilize the peptide-receptive MHC molecules prevent dissociation of the MHC complexes. To determine the yield of the exchange reaction, an ELISA was performed based on the detection of the light chain (β2m) of stabilized MHC complexes. The assay was performed as generally described in Rodenko et al. (Rodenko et al., 2006).
96 well MAXISorp plates (NUNC) were coated over night with 2 ug/ml streptavidin in PBS at room temperature, washed 4× and blocked for 1 h at 37° C. in 2% BSA containing blocking buffer. Refolded HLA-A*02:01/MLA-001 monomers served as standards, covering the range of 15-500 ng/ml. Peptide-MHC monomers of the UV-exchange reaction were diluted 100-fold in blocking buffer. Samples were incubated for 1 h at 37° C., washed four times, incubated with 2 ug/ml HRP conjugated anti-β2m for 1 h at 37° C., washed again and detected with TMB solution that is stopped with […]. Absorption was measured at 450 nm. […]
In general terms: ELISA stands for enzyme-linked immunosorbent assay.

This passage reports peptide exchange yield results from patent US20200155602A1 (IMMATICS BIOTECHNOLOGIES, published 2020).

As to SLTSFLISL, the peptide exchange yield fell in the range of 50 to 75%.
